Assay results taken from patent EP4471048A1, “PEPTIDE INHIBITORS OF INTERLEUKIN-23 RECEPTOR” (Zealand Pharma A/S, priority 2023, dated 2024).
Where two headings read alike, the source gives them in different places. *1 amine or outer side, *2 acyl side, *3 side chain or, on linkers, in order; H or OH if unused. Bridges are numbered along the chain shown (N, C = ends). [ ]: non-standard residue; d: D form. The star is where a group is joined. 4‑Aminomethyl‑phenylacetyl = 4-aminomethyl-phenylacetyl unit, its amine closes the lactam, O=C(Cc1ccc(CN[*:1])cc1)[*:2]; γDab = iso-Dab: Dab joined to preceding residue by its side-chain amine, O=C([C@H](CCN[*:1])N[*:3])[*:2]; Q(pyrrolidin) = modified Gln, O=C(CC[C@H](N[*:1])C(=O)[*:2])N1CCCC1; 2‑Amino‑6‑carboxyhexanoyl = 2-aminoheptanedioic acid residue; Propanoyl(3-(3-pyridyl)) = O=C(CCc1cccnc1)*; Phe(4-Me) = Cc1ccc(C[C@H](N)C(=O)O)cc1; 2Nal = N[C@@H](Cc1ccc2ccccc2c1)C(=O)O; AEF = NCCOc1ccc(C[C@H](N)C(=O)O)cc1; 3Pal = N[C@@H](Cc1cccnc1)C(=O)O; Aad = N[C@@H](CCCC(=O)O)C(=O)O; αMeL = CC(C)C[C@](C)(N)C(=O)O; dOrn = NCCC[C@@H](N)C(=O)O; dDab = NCC[C@@H](N)C(=O)O; Dab = NCC[C@H](N)C(=O)O

T1: Nluc-IL23R fusion protein (human, UniProt Q5VWK5 22-629)
T1 construct: range 22-629; Stably expressed in HEK293 cells; also called hIL-23R; human IL-23R; not shown: Nanoluc protein (N1371, Promega) at the N-terminus, after a secretion signal
T1 sequence (looked up): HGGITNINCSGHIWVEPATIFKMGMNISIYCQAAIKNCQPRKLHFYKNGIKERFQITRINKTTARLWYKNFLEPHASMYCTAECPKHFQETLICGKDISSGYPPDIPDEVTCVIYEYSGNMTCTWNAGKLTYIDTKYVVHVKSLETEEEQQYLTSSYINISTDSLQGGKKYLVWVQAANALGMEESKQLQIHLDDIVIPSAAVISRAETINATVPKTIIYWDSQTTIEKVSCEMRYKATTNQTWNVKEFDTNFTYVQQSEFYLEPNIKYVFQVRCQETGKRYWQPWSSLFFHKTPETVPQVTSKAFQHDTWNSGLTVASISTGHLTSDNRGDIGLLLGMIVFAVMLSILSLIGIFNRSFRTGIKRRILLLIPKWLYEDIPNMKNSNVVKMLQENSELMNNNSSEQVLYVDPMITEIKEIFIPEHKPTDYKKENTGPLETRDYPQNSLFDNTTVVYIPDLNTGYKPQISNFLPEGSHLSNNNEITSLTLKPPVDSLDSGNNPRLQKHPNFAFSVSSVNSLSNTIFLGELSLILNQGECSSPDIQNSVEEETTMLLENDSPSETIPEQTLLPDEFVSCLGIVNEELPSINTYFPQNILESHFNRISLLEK

T2: human IL-23R endogenously expressed on DB cells (human, UniProt Q5VWK5 24-629)
T2 sequence (looked up): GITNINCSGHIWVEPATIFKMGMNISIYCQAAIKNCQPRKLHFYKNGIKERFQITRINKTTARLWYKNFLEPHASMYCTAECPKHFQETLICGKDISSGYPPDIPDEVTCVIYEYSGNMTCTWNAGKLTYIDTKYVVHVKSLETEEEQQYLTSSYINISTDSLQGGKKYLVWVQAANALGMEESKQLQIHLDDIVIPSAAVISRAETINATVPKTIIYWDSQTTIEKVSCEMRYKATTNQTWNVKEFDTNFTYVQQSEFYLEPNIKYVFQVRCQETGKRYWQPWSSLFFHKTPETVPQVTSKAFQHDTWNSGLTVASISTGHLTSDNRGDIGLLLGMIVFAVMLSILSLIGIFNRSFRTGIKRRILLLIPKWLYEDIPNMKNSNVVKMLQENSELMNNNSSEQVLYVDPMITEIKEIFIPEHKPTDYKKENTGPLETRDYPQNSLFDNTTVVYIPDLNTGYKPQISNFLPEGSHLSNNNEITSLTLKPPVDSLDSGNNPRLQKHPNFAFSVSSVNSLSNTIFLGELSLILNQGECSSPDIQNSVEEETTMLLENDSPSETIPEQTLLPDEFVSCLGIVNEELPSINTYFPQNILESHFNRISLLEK

B1: Compound 24 (peptide)
peptide: KTVWQE[Phe(4-Me)][2Nal][αMeL][γDab](Propanoyl(3-(3-pyridyl)))
modifications: lactam 1-C, N-6; also: iso-Dab joined to preceding residue via its side-chain amine
B2: Compound C (peptide)
peptide: XQTWQCXWXENG
modifications: [Ac]-[Abu](16i)QTWQC(16i)[Y(2-aminoethoxy)]W[2-Me-Lys]ENG-[NH2]; (16i) [2,7] thioether bridge (Abu and Cys form a cystathionine)
B3: Compound 6 (peptide)
peptide: [dOrn]TVWQE[AEF][2Nal][αMeL][Aad][Dab][3Pal]-NH2
modifications: lactam 1-10, N-6
SMILES: CC(C)C[C@]1(C)NC(=O)[C@H](Cc2ccc3ccccc3c2)NC(=O)[C@H](Cc2ccc(OCCN)cc2)NC(=O)[C@@H]2CCC(=O)N[C@H](CCCNC(=O)CCC[C@@H](C(=O)N[C@@H](CCN)C(=O)N[C@@H](Cc3cccnc3)C(N)=O)NC1=O)C(=O)N[C@@H]([C@@H](C)O)C(=O)N[C@@H](C(C)C)C(=O)N[C@@H](Cc1c[nH]c3ccccc13)C(=O)N[C@@H](CCC(N)=O)C(=O)N2

Tests used:
[1] = target: human IL-23R endogenously expressed on DB cells (human) (UniProt Q5VWK5); assay: cell-based or functional assay
[2] = target: T1, Nluc-IL23R fusion protein; assay: BRET competition vs TAMRA-labelled peptide, Nluc-IL23R membranes; Ki by Cheng-Prusoff
[3] = target: T2, human IL-23R endogenously expressed on …; assay: cell-based or functional assay
[4] = target: T1, Nluc-IL23R fusion protein; assay: BRET competition vs TAMRA-labelled peptide, Nluc-IL23R membranes
[5] = target: T1, Nluc-IL23R fusion protein; assay: as above; remark: listed apart in the source

Row | EC80 of hIL-23 (phospho-STAT3 in DB cells) [1] | Ki [2] | hIL-23 (pSTAT3) antagonist % inhibition [3] | hIL-23 (pSTAT3) antagonist IC50 [3] | % displacement [4] | IC50 [4] | % displacement [5] | IC50 [5] | Molecule
1 | 1.7 nM |  |  |  |  |  |  |  | human IL-23 (from UniProt Q9NPF7 20-189; P29460 23-328) (ligand)
2 |  | 1.01 nM | 98% | 42 nM | 105% | 1.2 nM |  |  | [4‑Aminomethyl‑phenylacetyl]SEW[Q(pyrrolidin)][Dab][AEF][2Nal][αMeL]E[Dab]-NH2 (lactam N-10; bridge 3-6; also: (2c) bridge type not defined) [Ref 146]
3 |  |  | 99% | 0.19 nM |  |  | 104% |  | [dDab]TVWQE[AEF][2Nal][αMeL][2‑Amino‑6‑carboxyhexanoyl][Dab][3Pal]-NH2 (lactam 1-10, N-6) [Compound 7]
4 |  |  | 99% | 100 nM |  |  | 96% | 280 nM | B1
5 |  |  | 99% | 13 nM |  |  | 102% |  | B2
6 |  |  | 104% | 0.22 nM |  |  | 104% |  | B3
